Each block holds one molecule with its values, some of them ahead of it.
What was measured:
[1] = target: QSOX1B–V5 (quiescin sulfhydryl oxidase 1, splice variant B, V5-tagged) (human) (UniProt O00391); test: SEC; protein secreted for 3 h into serum-free medium, concentrated and buffer-exchanged (gel-filtration buffer with 0.03% Triton X-100 by the legend, 0.02% DDM by the methods), S200 PC3.2/30 column; fractions analysed by Western blot
[2] = target: cleaved QSOX1A (soluble product of the proteolytic processing of QSOX1A–V5, without the TM domain and the V5 tag) (human); test: SEC; cell lysate (2% DDM) of the QSOX1A–V5 cell line, Sephadex 200 PC3.2/30 column, 50 mM Tris/HCl pH 7.5, 150 mM NaCl, 1 mM EDTA, 0.02% DDM; fractions analysed by Western blot (anti-V5, anti-QSOX1A)
[3] = target: cleaved QSOX1A (soluble product of the proteolytic processing of QSOX1A–V5, without the TM domain and the V5 tag) (human); test: SEC; protein secreted for 3 h into serum-free medium, concentrated and buffer-exchanged (gel-filtration buffer with 0.03% Triton X-100 by the legend, 0.02% DDM by the methods), S200 PC3.2/30 column; fractions analysed by Western blot
[4] = target: the molecule itself; test: cross-linking; thiol-specific cross-linker BMH, 0.1 mM, added to intact cells in KHM buffer, 30 min on ice, stopped with 20 mM DTT; lysates analysed by Western blot or by immunoisolation (anti-V5–agarose, then anti-QSOX1A) of radiolabelled proteins; MS of the cross-linked product (results not shown)

stoichiometry N [1]: 2
Molecule: QSOX1B–V5 (quiescin sulfhydryl oxidase 1, splice variant B, V5-tagged) (from UniProt O00391-2 30-604) (enzyme)

stoichiometry N [2]: 2
stoichiometry N [3]: 2
Molecule: cleaved QSOX1A (soluble product of the proteolytic processing of QSOX1A–V5, without the TM domain and the V5 tag) (domain or fragment)

B1: QSOX1A–V5 (quiescin sulfhydryl oxidase 1, splice variant A, V5-tagged, uncleaved) (enzyme, human, UniProt O00391 30-747, looked up)
chain: APRSALYSPSDPLTLLQADTVRGAVLGSRSAWAVEFFASWCGHCIAFAPTWKALAEDVKAWRPALYLAALDCAEETNSAVCRDFNIPGFPTVRFFKAFTKNGSGAVFPVAGADVQTLRERLIDALESHHDTWPPACPPLEPAKLEEIDGFFARNNEEYLALIFEKGGSYLGREVALDLSQHKGVAVRRVLNTEANVVRKFGVTDFPSCYLLFRNGSVSRVPVLMESRSFYTAYLQRLSGLTREAAQTTVAPTTANKIAPTVWKLADRSKIYMADLESALHYILRIEVGRFPVLEGQRLVALKKFVAVLAKYFPGRPLVQNFLHSVNEWLKRQKRNKIPYSFFKTALDDRKEGAVLAKKVNWIGCQGSEPHFRGFPCSLWVLFHFLTVQAARQNVDHSQEAAKAKEVLPAIRGYVHYFFGCRDCASHFEQMAAASMHRVGSPNAAVLWLWSSHNRVNARLAGAPSEDPQFPKVQWPPRELCSACHNERLDVPVWDVEATLNFLKAHFSPSNIILDFPAAGSAARRDVQNVAAAPELAMGALELESRNSTLDPGKPEMMKSPTNTTPHVPAEGPEASRPPKLHPGLRAAPGQEPPEHMAELQRNEQEQPLGQWHLSKRDTGAALLAESRAEKNRLWGPLEVRRVGRSSKQLVDIPEGQLEARAGRGRGQWLQVLGGGFSYLDISLCVGLYSLSFMGLLAMYTYFQAKIRALKGHAGHPAA
notes: human QSOX1A, the long splice variant of QSOX1 with 143 additional C-terminal amino acids including the single-pass TM domain; uncleaved (full-length) form; Membrane-integrated, V5 on the cytosolic side; also called V5-tagged QSOX1A; uncleaved QSOX1A–V5; source: HT1080, stably overexpressing (cross-linking in cells, SEC of lysate); HT1080, transiently co-transfected, in lysate (co-assembly); not …
stoichiometry N [4]: 2
